Experimental data taken from publication PMC2704562 (Biochimica et biophysica acta, 2009).
Where a chain is given by its changes, count along the chain named. In names and notes the source's numbering stands.

What was measured:
SEC = molecular target: the molecule itself; assay: SEC
[1] = substrate: Nc1ncnc2c1ncn2[C@@H]1O[C@H](COP(=O)(O)OP(=O)(O)OP(=O)(O)O)[C@@H](O)[C@H]1O; assay: radiometric S-adenosylmethionine formation assay, Michaelis-Menten fit; type: biochemical, Methanocaldococcus jannaschii; details: 0.5 mM [methyl-14C]-L-methionine, ATP 0.05-2.5 mM, 55 °C
AUC = molecular target: the molecule itself; assay: AUC

B1: Methanococcus jannaschii methionine adenosyltransferase, wild type (enzyme, UniProt Q58605 1-406, looked up)
chain: MRNIIVKKLDVEPIEERPTEIVERKGLGHPDSICDGIAESVSRALCKMYMEKFGTILHHNTDQVELVGGHAYPKFGGGVMVSPIYILLSGRATMEILDKEKNEVIKLPVGTTAVKAAKEYLKKVLRNVDVDKDVIIDCRIGQGSMDLVDVFERQKNEVPLANDTSFGVGYAPLSTTERLVLETERFLNSDELKNEIPAVGEDIKVMGLREGKKITLTIAMAVVDRYVKNIEEYKEVIEKVRKKVEDLAKKIADGYEVEIHINTADDYERESVYLTVTGTSAEMGDDGSVGRGNRVNGLITPFRPMSMEAASGKNPVNHVGKIYNILANLIANDIAKLEGVKECYVRILSQIGKPINEPKALDIEIITEDSYDIKDIEPKAKEIANKWLDNIMEVQKMIVEGKVTTF
Q: B1 was tested. Which “stoichiometry N” value (SEC) did it give?
A: 2

Q: And the Km [1]?
A: 0.19 ± 0.03 mM

Q: What about the kcat [1] of the same protein?
A: 1.46 ± 0.05 s⁻¹

B2: Mj-MAT W387F-Y120W (enzyme, Methanococcus jannaschii, UniProt Q58605 1-406, looked up)
chain: B1 chain with Y120W, W387F
Q: For B2, which “stoichiometry N” value (AUC) is on record?
A: 2

B3: Mj-MAT W387F-Y267W (enzyme, Methanococcus jannaschii, UniProt Q58605 1-406, looked up)
chain: B1 chain with Y267W, W387F
Q: B3 was tested. Which “stoichiometry N” value (AUC) did it give?
A: 2

B4: Mj-MAT W387F-Y255W (enzyme, Methanococcus jannaschii, UniProt Q58605 1-406, looked up)
chain: B1 chain with Y255W, W387F
Q: For B4, which “stoichiometry N” value (AUC) is on record?
A: 2

B5: Mj-MAT W387F-Y371W (enzyme, Methanococcus jannaschii, UniProt Q58605 1-406, looked up)
chain: B1 chain with Y371W, W387F
Q: B5 was tested. Which “stoichiometry N” value (AUC) did it give?
A: 2

B6: Mj-MAT W387F-Y273W (enzyme, Methanococcus jannaschii, UniProt Q58605 1-406, looked up)
chain: B1 chain with Y273W, W387F
Q: With B6 as the protein, how does the “stoichiometry N” value (AUC) read?
A: 2

B7: Mj-MAT W387F-Y233W (enzyme, Methanococcus jannaschii, UniProt Q58605 1-406, looked up)
chain: B1 chain with Y233W, W387F
Q: B7 was tested. Which “stoichiometry N” value (AUC) did it give?
A: 2

B8: Mj-MAT W387F (enzyme, Methanococcus jannaschii, UniProt Q58605 1-406, looked up)
chain: B1 chain with W387F
Q: Which Km [1] does the source give for B8 here?
A: 0.11 ± 0.03 mM

Q: What about the kcat [1] of the same protein?
A: 1.85 ± 0.08 s⁻¹

Q: And the “stoichiometry N” value (AUC)?
A: 2

B9: Mj-MAT W387F-Y226W (enzyme, Methanococcus jannaschii, UniProt Q58605 1-406, looked up)
chain: B1 chain with Y226W, W387F
Q: Which “stoichiometry N” value (AUC) does the source give for B9 here?
A: 2

B10: Mj-MAT W387F-Y72W (enzyme, Methanococcus jannaschii, UniProt Q58605 1-406, looked up)
chain: B1 chain with Y72W, W387F
Q: B10 was tested. Which Km [1] did it give?
A: 0.11 ± 0.03 mM

Q: What about the kcat [1] of the same protein?
A: 1.62 ± 0.15 s⁻¹

Q: What about the “stoichiometry N” value (AUC) of the same protein?
A: 2

B11: Mj-MAT W387F-Y85W (enzyme, Methanococcus jannaschii, UniProt Q58605 1-406, looked up)
chain: B1 chain with Y85W, W387F
Q: Which “stoichiometry N” value (AUC) does the source give for B11 here?
A: 2

B12: Mj-MAT W387F-Y323W (enzyme, Methanococcus jannaschii, UniProt Q58605 1-406, looked up)
chain: B1 chain with Y323W, W387F
Q: B12 was tested. Which “stoichiometry N” value (AUC) did it give?
A: 2

B13: Mj-MAT W387F-Y170W (enzyme, Methanococcus jannaschii, UniProt Q58605 1-406, looked up)
chain: B1 chain with Y170W, W387F
Q: For B13, which Km [1] is on record?
A: 0.10 ± 0.02 mM

Q: What about the kcat [1] of the same protein?
A: 2.39 ± 0.03 s⁻¹

Q: What about the “stoichiometry N” value (AUC) of the same protein?
A: 2

B14: Mj-MAT W387F-Y49W (enzyme, Methanococcus jannaschii, UniProt Q58605 1-406, looked up)
chain: B1 chain with Y49W, W387F
Q: With B14 as the protein, how does the “stoichiometry N” value (AUC) read?
A: 2

B15: Mj-MAT W387F-Y344W (enzyme, Methanococcus jannaschii, UniProt Q58605 1-406, looked up)
chain: B1 chain with Y344W, W387F
Q: How did the “stoichiometry N” value (AUC) turn out when B15 was run?
A: 2
